{"source": "paper PMC11079029", "about": "“Intramolecular autoinhibition regulates the selectivity of PRPF40A tandem WW domains for proline-rich motifs” (Nature Communications, 2024)", "molecules": {"B1": {"name": "NKRF (protein, UniProt O15226 1-690, looked up)", "NF-kappa-B-repressing factor": "MEKILQMAEGIDIGEMPSYDLVLSKPSKGQKRHLSTCDGQNPPKKQAGSKFHARPRFEPVHFVASSSKDERQEDPYGPQTKEVNEQTHFASMPRDIYQDYTQDSFSIQDGNSQYCDSSGFILTKDQPVTANMYFDSGNPAPSTTSQQANSQSTPEPSPSQTFPESVVAEKQYFIEKLTATIWKNLSNPEMTSGSDKINYTYMLTRCIQACKTNPEYIYAPLKEIPPADIPKNKKLLTDGYACEVRCQNIYLTTGYAGSKNGSRDRATELAVKLLQKRIEVRVVRRKFKHTFGEDLVVCQIGMSSYEFPPALKPPEDLVVLGKDASGQPIFNASAKHWTNFVITENANDAIGILNNSASFNKMSIEYKYEMMPNRTWRCRVFLQDHCLAEGYGTKKTSKHAAADEALKILQKTQPTYPSVKSSQCHTGSSPRGSGKKKDIKDLVVYENSSNPVCTLNDTAQFNRMTVEYVYERMTGLRWKCKVILESEVIAEAVGVKKTVKYEAAGEAVKTLKKTQPTVINNLKKGAVEDVISRNEIQGRSAEEAYKQQIKEDNIGNQLLRKMGWTGGGLGKSGEGIREPISVKEQHKREGLGLDVERVNKIAKRDIEQIIRNYARSESHTDLTFSRELTNDERKQIHQIAQKYGLKSKSHGVGHDRYLVVGRKRRKEDLLDQLKQEGQVGHYELVMPQAN"}, "B2": {"name": "FAM120A (protein, UniProt Q9NZB2 1-1118, looked up)", "Constitutive coactivator of …": "MGVQGFQDYIEKHCPSAVVPVELQKLARGSLVGGGRQRPPQTPLRLLVDADNCLHRLYGGFYTDWVSGGQWNHMLGYLAALAKACFGGNIELFVFFNGALEKARLHEWVKRQGNERQTAQQIVSHVQNKGTPPPKVWFLPPVCMAHCIRLALIRFHVKVAQSIEDHHQEVIGFCRENGFHGLVAYDSDYALCNIPYYFSAHALKLSRNGKSLTTSQYLMHEVAKQLDLNPNRFPIFAALLGNHILPDEDLASFHWSLLGPEHPLASLKVRAHQLVLPPCDVVIKAVADYVRNIQDTSDLDAIAKDVFQHSQSRTDDKVIRFKRAIGYYSATSKPMSFHPPHYLAARPGPFGMPGMVPPHVPPQMLNIPQTSLQAKPVAPQVPSPGGAPGQGPYPYSLSEPAPLTLDTSGKNLTEQNSYSNIPHEGKHTPLYERSSPINPAQSGSPNHVDSAYFPGSSTSSSSDNDEGSGGATNHISGNKIGWEKTGSHSEPQARGDPGDQTKAEGSSTASSGSQLAEGKGSQMGTVQPIPCLLSMPTRNHMDITTPPLPPVAPEVLRVAEHRHKKGLMYPYIFHVLTKGEIKIAVSIEDEANKDLPPAALLYRPVRQYVYGVLFSLAESRKKTERLAFRKNRLPPEFSPVIIKEWAAYKGKSPQTPELVEALAFREWTCPNLKRLWLGKAVEDKNRRMRAFLACMRSDTPAMLNPANVPTHLMVLCCVLRYMVQWPGARILRRQELDAFLAQALSPKLYEPDQLQELKIENLDPRGIQLSALFMSGVDMALFANDACGQPIPWEHCCPWMYFDGKLFQSKLLKASREKTPLIDLCDGQADQAAKVEKMRQSVLEGLSFSRQSHTLPFPPPPALPFYPASAYPRHFGPVPPSQGRGRGFAGVCGFGGPYGETVATGPYRAFRVAAASGHCGAFSGSDSSRTSKSQGGVQPIPSQGGKLEIAGTVVGHWAGSRRGRGGRGPFPLQVVSVGGPARGRPRGVISTPVIRTFGRGGRYYGRGYKNQAAIQGRPPYAASAEEVAKELKSKSGESKSSAMSSDGSLAENGVMAEEKPAPQMNGSTGDARAPSHSESALNNDSKTCNTNPHLNALSTDSACRREAALEAAVLNKEE"}, "B3": {"name": "LARP7 (protein, UniProt Q4G0J3 1-582, looked up)", "La-related protein 7": "METESGNQEKVMEEESTEKKKEVEKKKRSRVKQVLADIAKQVDFWFGDANLHKDRFLREQIEKSRDGYVDISLLVSFNKMKKLTTDGKLIARALRSSAVVELDLEGTRIRRKKPLGERPKDEDERTVYVELLPKNVNHSWIERVFGKCGNVVYISIPHYKSTGDPKGFAFVEFETKEQAAKAIEFLNNPPEEAPRKPGIFPKTVKNKPIPALRVVEEKKKKKKKKGRMKKEDNIQAKEENMDTSNTSISKMKRSRPTSEGSDIESTEPQKQCSKKKKKRDRVEASSLPEVRTGKRKRSSSEDAESLAPRSKVKKIIQKDIIKEASEASKENRDIEISTEEEKDTGDLKDSSLLKTKRKHKKKHKERHKMGEEVIPLRVLSKSEWMDLKKEYLALQKASMASLKKTISQIKSESEMETDSGVPQNTGMKNEKTANREECRTQEKVNATGPQFVSGVIVKIISTEPLPGRKQVRDTLAAISEVLYVDLLEGDTECHARFKTPEDAQAVINAYTEINKKHCWKLEILSGDHEQRYWQKILVDRQAKLNQPREKKRGTEKLITKAEKIRLAKTQQASKHIRFSEYD"}}, "test_system": "GFP-tagged PRPF40A-Nter-MUT", "assay": "SILAC GFP-immunoprecipitation with quantitative mass spectrometry, mutant construct", "type": "binding, human (Hela cells)", "settings": "quantitative MS, Hela cells, protein by gene name", "summary_of_the_method": "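GFP-tagged PRPF40A N-terminal region (isoform 2, residues 1–221) with PPVP/PALPP motifs mutated to alanines, transiently expressed 24 h in SILAC-labelled HeLa cells alongside GFP control. Lysates (2.5 mg) pulled down on GFP-nanobody beads 1 h at 4 °C; pooled eluates trypsin-digested and quantified by LC-MS/MS on Orbitrap.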"}
{"molecule": "B1", "values": [{"measurement": "Immunoprecipitation enrichment MUT vs WT, log2 FC", "result": 1.452}]}
{"molecule": "B2", "values": [{"measurement": "Immunoprecipitation enrichment MUT vs WT, log2 FC", "result": 1.247}]}
{"molecule": "B3", "values": [{"measurement": "Immunoprecipitation enrichment MUT vs WT, log2 FC", "result": 1.221}]}
